In US6551840B2, “Method of screening TGF-β-inhibiting substances” (Chugai Seiyaku Kabushiki Kaisha, priority 1997, dated 2003):

Experiments:
Mv1Lu cell [1] = details: Yamaguchi K. et al., (1995) Science 270, 2008-2011; cited from earlier work
Mv1Lu cell [2] = assay: PAI-1 ELISA in culture supernatant of Mv1Lu cells with or without TGF-β1; type: cell-based, mink; details: Mv1Lu cells with forced expression; 10 ng/ml TGF-β1, 24 hours; control cells about 16-fold
Source text: Accordingly, TAK1DN was subjected to forced expression in the Mv1Lu cell to investigate the effects of TGF-β stimulation on PAI-1 expression. The TAK1DN expression vector used was the above-mentioned TAK1DN, and the TAK1 polypeptide mutant TAK1-K63W expression vector was constructed by inserting a gene (Yamaguchi K. et al., (1995) Science 270, 2008-2011) encoding the TAK1 polypeptide mutant TAK1-K63W in which the lysine residue at position 63 has been replaced with the tryptophan residue at the EcoRI and NotI restriction enzyme site of pCOS1 to give pTAK1K63W.
The Mv1Lu cells into which pTAK1Dn had been introduced (Mv/DN2), the cells into which pTAK1K63W had been introduced (Mv/KN7), and the control cells into which pCOS1 containing no inserted genes (Mv/NEO) had been introduced were each incubated in a low-serum medium (MEM medium containing 0.2% FBS; manufactured by GIBCO-BRL) with or without 10 ng/ml of TGF-β1 for 24 hours. The amount of PAI-1 in the culture supernatant was determined using the PAI-1 Quantative ELISA (manufactured by CALBIOCHEM).

B1: TAK1-K63W: catalytically inactive TAK1 polypeptide mutant in which the lysine residue at position 63 has been replaced with the tryptophan residue (protein, UniProt O43318 1-606, looked up, variant K63W)
Mitogen-activated protein …: MSTASAASSSSSSSAGEMIEAPSQVLNFEEIDYKEIEVEEVVGRGAFGVVCKAKWRAKDVAIWQIESESERKAFIVELRQLSRVNHPNIVKLYGACLNPVCLVMEYAEGGSLYNVLHGAEPLPYYTAAHAMSWCLQCSQGVAYLHSMQPKALIHRDLKPPNLLLVAGGTVLKICDFGTACDIQTHMTNNKGSAAWMAPEVFEGSNYSEKCDVFSWGIILWEVITRRKPFDEIGGPAFRIMWAVHNGTRPPLIKNLPKPIESLMTRCWSKDPSQRPSMEEIVKIMTHLMRYFPGADEPLQYPCQYSDEGQSNSATSTGSFMDIASTNTSNKSDTNMEQVPATNDTIKRLESKLLKNQAKQQSESGRLSLGASRGSSVESLPPTSEGKRMSADMSEIEARIAATTAYSKPKRGHRKTASFGNILDVPEIVISGNGQPRRRSIQDLTVTGTEPGQVSSRSSSPSVRMITTSGPTSEKPTRSHPWTPDDSTDTNGSDNSIPMAYLTLDHQLQPLAPCPNSKESMAVFEQHCKMAQEYMKVQTEIALLLQRKQELVAELDQDEKDQQNTSRLVQEHKKLLDENKSLSTYYQQCKKQLEVIRSQQQKRQGTS
- effect of forced expression on PAI-1 expression stimulated by TGF-β (Mv1Lu cell [1]): PAI-1 expression is inhibited
- increase in PAI-1 in the culture supernatant by TGF-β1 addition (Mv1Lu cell [2]): about 6.5 fold
